B1: DX-997 (peptide)
chain: Ac-GDFSLCWIVDEDGTKWCLPDPGGGK-NH2
modifications: disulfide 6-17 (inferred); also: fluorescein label, attachment site not given here
B2: DX-321 (GD...GGGK form) (peptide)
chain: Ac-GDRNMCKFSWIRSPAFCARADPGGGK-NH2
modifications: disulfide 6-17 (inferred); also: fluorescein label, attachment site not given here

Bridges are numbered along the chain shown (N, C = ends). [ ]: non-standard residue; d: D form. Ahx = NCCCCCC(=O)O

The term Kd denotes a measure of binding affinity in units of concentration. The low end stands for a tighter complex, the high end for a looser complex.

The target in the first assay is T1, human serum albumin (HSA) (human, UniProt P02768). As to the kind of experiment: FP, PBS.
In the case of B1, the Kd is greater than 10 µM. The same measure, in the same setting: for Ac-AGWTTCHIYDWFCSSSGTGGGK-NH2 (disulfide 6-13 (inferred); also: fluorescein label, position not given here) [DX-1175] the value was 30 µM. Same read-out and setting: next, Ac-GDSFCVTYIGTWETVCKRSDPGGGK-NH2 (disulfide 5-16 (inferred); also: fluorescein label, position not given here) [DX-1089]: greater than 10 µM; Ac-GDDSMCITWPFKRPWPCANDPGGGK-NH2 (disulfide 6-17 (inferred); also: fluorescein label, position not given here) [DX-1163]: 42 µM; Ac-GSLWDCWLYDCEGNAPGGGK-NH2 (disulfide 6-11 (inferred); also: fluorescein label, position not given here) [DX-1093]: greater than 10 µM.

In the case of Ac-AGYQFCTWDPIFCGWHGTGGGK-NH2 (disulfide 6-13 (inferred); also: fluorescein label, position not given here) [DX-1179], the Kd is 185 µM. The same measure, in the same setting: for B2 the value was greater than 10 µM; for Ac-GDLRDCQTTWPFTMMQCPNNDPGGGK-NH2 (disulfide 6-17 (inferred); also: fluorescein label, position not given here) [DX-1002], 4 µM. The same measure, in the same setting: next, Ac-GDLRSCFTYYPFTTFSCSPADPGGGK-NH2 (disulfide 6-17 (inferred); also: fluorescein label, position not given here) [DX-1091]: greater than 10 µM. Take Ac-AGLEYCFYQWWGCPHAGTGGGK-NH2 (disulfide 6-13 (inferred); also: fluorescein label, position not given here) [DX-1177]: the Kd turned out to be 153 µM. Still for that read-out and setting: for Ac-GDSPYCKIALFQHFEVCAADDPGGGK-NH2 (disulfide 6-17 (inferred); also: fluorescein label, position not given here) [DX-1167] the value was greater than 10 µM; for Ac-GDNDGCTDTNWSWMFDCPPLDPGGGK-NH2 (disulfide 6-17 (inferred); also: fluorescein label, position not given here) [DX-1165], greater than 10 µM. The same measure, in the same setting: for Ac-GSRSFCMDWPNHRDCDYSAPGGGK-NH2 (disulfide 6-15 (inferred); also: fluorescein label, position not given here) [DX-1171] the value was 165 µM; for Ac-AGKWYCAWDPLVCEIFGTGGGK-NH2 (disulfide 6-13 (inferred); also: fluorescein label, position not given here) [DX-1173], greater than 10 µM.

The target of the next assay is T1, human serum albumin (HSA). As to the kind of experiment: FP, pH 6.2, 0.14 M NaCl.
The molecule Ac-AEGTGSVAWCTIFLCLDVAPEGGGK(fluorescein)-NH2 (disulfide 10-15 (inferred)) [DX-232] had a Kd of 0.5 µM.

Molecule Ac-AEGTGSFKICDQWFCLMPAPE[Ahx]K(fluorescein)-NH2 (disulfide 10-15 (inferred)) [DX-295] came in with a Kd greater than 100 µM.

Ac-AEGTGDDWDCVTDWANRHQHCWALDPE[Ahx]K(fluorescein)-NH2 (disulfide 10-21 (inferred)) [DX-317] returned a Kd greater than 200 µM. For the molecule Ac-AEGTGDDWQCVKDWANRRRGCMADDPE[Ahx]K(fluorescein)-NH2 (disulfide 10-21 (inferred)) [DX-319], the Kd was greater than 200 µM. Turning to Ac-AEGTGDDWDCVTRWANRDQQCWGPDPE[Ahx]K(fluorescein)-NH2 (disulfide 10-21 (inferred)) [DX-313], binding was put at a Kd of 80 µM.

Molecule Ac-AEGTGSNHGCWHFSCIWDAPE[Ahx]K(fluorescein)-NH2 (disulfide 10-15 (inferred)) [DX-298] showed a Kd greater than 200 µM. Still for that read-out and setting: next, Ac-AEGTGDDWDCVTRWANRDQQCWALDPE[Ahx]K(fluorescein)-NH2 (disulfide 10-21 (inferred)) [DX-315]: greater than 200 µM.

On to Ac-AEGTGSHVGCNNALCMQYAPE[Ahx]K(fluorescein)-NH2 (disulfide 10-15 (inferred)) [DX-296], for which the Kd is greater than 100 µM. On the same count and under the same terms, for Ac-AEGTGSWKVCDHFFCLSPAPE[Ahx]K(fluorescein)-NH2 (disulfide 10-15 (inferred)) [DX-297] the value was greater than 200 µM.

Another assay concerns the target T1, human serum albumin (HSA). The assay can be described thus: FP.
Turning to Ac-AEGTGDFWFCDRIAWYPQHLCGGGK-NH2 (disulfide 10-21 (inferred)) [DX-236 truncation SEQ 42], the Kd was 8.9 µM. This lies in the single-digit micromolar range. On the same count and under the same terms, for Ac-FWFCDRIAWYPQHLCEFLDPEGGGK-NH2 (disulfide 4-15 (inferred)) [DX-236 truncation SEQ 39] the value was 8.9 µM.

The target of another assay is T1, human serum albumin (HSA). The assay can be described thus: FP, pH 9.1, 0.14 M NaCl.
In the case of Ac-AEGTGDDWDCVTRWANRDQQCWGPDPE[Ahx]K(fluorescein)-NH2 (disulfide 10-21 (inferred)) [DX-313], the Kd was 90 µM. The same measure, in the same setting: next, Ac-AEGTGSNHGCWHFSCIWDAPE[Ahx]K(fluorescein)-NH2 (disulfide 10-15 (inferred)) [DX-298]: greater than 200 µM.

Another assay concerns the target T1, human serum albumin (HSA). As to the kind of experiment: FP, PBS. This is another data set of the same source.
Ac-GDPRSCVEKYYWDVLICGFFDPGGGK-NH2 (disulfide 6-17 (inferred); also: fluorescein label, position not given here) [DX-1169]: the binding result is on record as “no binding”. Still for that read-out and setting: for Ac-GDSDFCDTPYWRDLWQCNSPDPGGGK-NH2 (disulfide 6-17 (inferred); also: fluorescein label, position not given here) [DX-1087] the value was “no binding”; for Ac-GDRWFCDSAYWQEIPACARDDPGGGK-NH2 (disulfide 6-17 (inferred); also: fluorescein label, position not given here) [DX-1085], “no binding”.

The target in another assay is T1, human serum albumin (HSA). The assay can be described thus: FP, pH 7.4, 0.14 M NaCl, 0.1% caprylate.
Ac-AEGTGDDWDCVTRWANRDQQCWALDPE[Ahx]K(fluorescein)-NH2 (disulfide 10-21 (inferred)) [DX-315] returned a Kd greater than 100 µM.

With Ac-AEGTGSHVGCNNALCMQYAPE[Ahx]K(fluorescein)-NH2 (disulfide 10-15 (inferred)) [DX-296], the Kd is greater than 200 µM. On the same count and under the same terms, for Ac-AEGTGSWKVCDHFFCLSPAPE[Ahx]K(fluorescein)-NH2 (disulfide 10-15 (inferred)) [DX-297] the value was greater than 200 µM.

The next assay concerns the target T1, human serum albumin (HSA). As to the kind of experiment: FP, pH 7.4, 0.14 M NaCl.
For Ac-AEGTGDDWQCVKDWANRRRGCMADDPE[Ahx]K(fluorescein)-NH2 (disulfide 10-21 (inferred)) [DX-319], the Kd was greater than 200 µM. The same measure, in the same setting: for Ac-AEGTGDDWDCVTRWANRDQQCWGPDPE[Ahx]K(fluorescein)-NH2 (disulfide 10-21 (inferred)) [DX-313] the value was greater than 200 µM. In the case of Ac-AEGTGSWKVCDHFFCLSPAPE[Ahx]K(fluorescein)-NH2 (disulfide 10-15 (inferred)) [DX-297], the Kd is greater than 200 µM.

(Values after US7211395 (dated 2007).)
